{"source": "paper PMC3320862", "about": "“Structural and Functional Analysis of the Symmetrical Type I Restriction Endonuclease R.EcoR124INT” (PLOS One, 2012)", "key": {"[1]": {"target": "T1, M.EcoR124INT methyltransferase (UniProt P10484 1-520; P10485 1-215)", "T1 construct": "HsdM (modification subunit, M) of the Type I restriction-modification system EcoR124I; SNT: residues 1-215 of the parent specificity subunit HsdS (S) of EcoR124I, holding the N-terminal target recognition domain and the central conserved region; Complex formed beforehand (M and SNT), to which HsdR was added; M2 stoichiometry is printed for Type I MTases in general (M2S); 'two modified SNT …", "T1 sequence (looked up) 1": "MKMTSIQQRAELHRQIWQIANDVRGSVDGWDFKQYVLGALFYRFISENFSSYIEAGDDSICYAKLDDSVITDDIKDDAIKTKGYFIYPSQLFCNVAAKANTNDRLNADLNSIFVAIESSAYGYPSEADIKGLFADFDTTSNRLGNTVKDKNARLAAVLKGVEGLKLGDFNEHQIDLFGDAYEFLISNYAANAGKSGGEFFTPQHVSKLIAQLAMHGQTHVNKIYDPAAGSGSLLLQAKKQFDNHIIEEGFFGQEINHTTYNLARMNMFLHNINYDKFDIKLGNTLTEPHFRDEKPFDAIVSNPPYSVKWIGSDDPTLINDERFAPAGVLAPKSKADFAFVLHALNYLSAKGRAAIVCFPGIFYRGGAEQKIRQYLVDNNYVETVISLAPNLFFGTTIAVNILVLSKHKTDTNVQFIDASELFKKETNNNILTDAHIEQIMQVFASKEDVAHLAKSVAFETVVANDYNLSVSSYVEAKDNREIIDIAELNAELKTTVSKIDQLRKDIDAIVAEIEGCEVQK", "T1 sequence (looked up) 2": "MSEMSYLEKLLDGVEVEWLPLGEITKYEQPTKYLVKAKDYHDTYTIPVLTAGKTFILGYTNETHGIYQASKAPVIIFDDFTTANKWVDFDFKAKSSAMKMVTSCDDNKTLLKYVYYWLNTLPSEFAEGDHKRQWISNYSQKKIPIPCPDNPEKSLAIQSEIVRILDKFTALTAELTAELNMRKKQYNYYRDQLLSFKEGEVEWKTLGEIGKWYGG", "experiment": "small-angle neutron scattering; ENase formed at 2:1 molar ratio HsdR:MTase, ca. 3 uM, buffer A; fully protonated complex in H2O, and complex with deuterated HsdR and protonated MTase in 40% D2O (MTase matched out)", "conditions": "both partners purified"}, "[2]": {"target": "T1, M.EcoR124INT methyltransferase", "experiment": "native gel or EMSA; purified HsdR mixed with MTase at 1:1 and 2:1 molar ratios, then with a 30 bp DNA duplex with the recognition sequence (1:1 enzyme:DNA); 2 uM MTase and DNA, 2 or 4 uM HsdR; 6% non-denaturing polyacrylamide gel, 150 V, 2.5 h, 0.25x TBE; no difference with 10 mM MgCl2", "conditions": "both partners purified"}}}
{"binder": "HsdR from EcoR124I (enzyme, UniProt P10486 1-1038, looked up, HsdR (restriction / motor subunit) of the Type I restriction-modification system EcoR124I; about 120 kDa as printed; For one SANS sample the same protein was made about 75% deuterated (85% D2O minimal medium); also called R subunit; motor subunit; source: expressed and purified as described previously [24]; deuterated form from BL21 (DE3) with the expression plasmid pBGSR124) MTHQTHTIAESNNFIVLDKYIKAEPTGDSYQSESDLERELIQDLRNQGYEFISVKSQSAMLANVREQLQNLNGVVFNDSEWRRFTEQYLDNPSDGILDKTRKIHIDYICDFIFDDERLENIYLIDKKNLMRNKVQIIQQFEQAGSHANRYDVTILVNGLPLVQIELKKRGVAIREAFNQIHRYSKESFNSENSLFKYLQLFVISNGTDTRYFANTTKRDKNSFDFTMNWAKSDNTLIKDLKDFTATCFQKHTLLNVLVNYSVFDSSQTLLVMRPYQIAATERILWKIKSSFTAKNWSKPESGGYIWHTTGSGKTLTSFKAARLATELDFIDKVFFVVDRKDLDYQTMKEYQRFSPDSVNGSENTAGLKRNLDKDDNKIIVTTIQKLNNLMKAESDLPVYNQQVVFIFDECHRSQFGEAQKNLKKKFKRYYQFGFTGTPIFPENALGSETTASVFGRELHSYVITDAIRDEKVLKFKVDYNDVRPQFKSLETETDEKKLSAAENQQAFLHPMRIQEITQYILNNFRQKTHRTFPGSKGFNAMLAVSSVDAAKAYYATFKRLQEEAANKSATYKPLRIATIFSFAANEEQNAIGEISDETFDTSAMDSSAKEFLDAAIREYNSHFKTNFSTDSNGFQNYYRDLAQRVKNQDIDLLIVVGMFLTGFDAPTLNTLFVDKNLRYHGLMQAFSRTNRIYDATKTFGNIVTFRDLERSTIDAITLFGDKNTKNVVLEKSYTEYMEGFTDAATGEAKRGFMTVVSELEQRFPDPTSIESEKEKKDFVKLFGEYLRAENILQNYDEFATLKALQQIDLSDPVAVEKFKAEHYVDDEKFAELQTIRLPADRKIQDYRSAYNDIRDWQRREKEAEKKEKSTTDWDDVVFEVDLLKSQEINLDYILGLIFEHNRQNKGKGEMIEEVKRLIRSSLGNRAKEGLVVDFIQQTNLDDLPDKASIIDAFFTFAQREQQREAEALIKEENLNEDAAKRYIRTSLKREYATENGTELNETLPKLSPLNPQYKTKKQAVFQKIVSFIEKFKGVGGKI", "values": [{"measurement": "stoichiometry N", "setting": "[1]", "result": 2, "unit": "HsdR per complex"}, {"measurement": "stoichiometry N", "setting": "[2]", "result": 2, "unit": "HsdR per MTase"}]}
